Results reported in patent US20130129752A1.

Legend:
Assay in all cases: cell-based or functional assay
[1] = biological target: human HA LFA-1 stably expressed on K562 cells (K562-HA LFA-1) (human) (UniProt P20701)
[2] = biological target: human WT LFA-1 (alpha L beta 2) on cells, activation state not specified at the place cited (human) (UniProt P20701)
[3] = biological target: human LFA-1 on cells in the unstimulated, low-affinity conformation (human) (UniProt P20701)
human LFA-1 on cells in the unstimulated, low-affinity conformation (human), sequence (P20701 26-1170, chain 1 of 2): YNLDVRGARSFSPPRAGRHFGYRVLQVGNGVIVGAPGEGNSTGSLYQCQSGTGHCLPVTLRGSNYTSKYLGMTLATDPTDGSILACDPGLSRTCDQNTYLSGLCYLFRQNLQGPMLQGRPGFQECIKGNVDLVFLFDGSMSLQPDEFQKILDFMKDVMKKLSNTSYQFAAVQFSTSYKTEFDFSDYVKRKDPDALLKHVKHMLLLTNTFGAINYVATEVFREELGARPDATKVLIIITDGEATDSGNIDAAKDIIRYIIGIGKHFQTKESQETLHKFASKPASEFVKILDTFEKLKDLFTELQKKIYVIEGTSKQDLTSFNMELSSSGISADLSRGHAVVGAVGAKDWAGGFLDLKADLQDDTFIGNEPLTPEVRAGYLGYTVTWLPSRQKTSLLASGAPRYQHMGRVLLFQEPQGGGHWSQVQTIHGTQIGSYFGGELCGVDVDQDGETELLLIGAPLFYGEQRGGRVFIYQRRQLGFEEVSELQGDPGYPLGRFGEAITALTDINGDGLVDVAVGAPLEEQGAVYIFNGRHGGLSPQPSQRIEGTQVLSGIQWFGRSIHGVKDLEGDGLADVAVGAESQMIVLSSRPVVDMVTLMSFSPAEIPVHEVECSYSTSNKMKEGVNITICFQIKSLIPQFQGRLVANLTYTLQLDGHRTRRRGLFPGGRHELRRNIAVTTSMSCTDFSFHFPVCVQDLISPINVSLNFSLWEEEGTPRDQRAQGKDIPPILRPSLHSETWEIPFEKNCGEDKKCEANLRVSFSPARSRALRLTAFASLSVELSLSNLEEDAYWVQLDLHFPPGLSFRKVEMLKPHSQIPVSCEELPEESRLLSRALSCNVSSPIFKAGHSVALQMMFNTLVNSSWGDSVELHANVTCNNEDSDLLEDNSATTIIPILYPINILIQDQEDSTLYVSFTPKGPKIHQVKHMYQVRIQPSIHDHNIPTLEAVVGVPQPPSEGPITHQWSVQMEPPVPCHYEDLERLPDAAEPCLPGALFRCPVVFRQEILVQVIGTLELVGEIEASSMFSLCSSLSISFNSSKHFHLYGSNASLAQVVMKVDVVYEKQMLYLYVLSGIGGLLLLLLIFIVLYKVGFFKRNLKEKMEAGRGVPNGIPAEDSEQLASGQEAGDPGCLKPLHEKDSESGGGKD
human LFA-1 on cells in the unstimulated, low-affinity conformation (human), sequence (P05107 23-769, chain 2 of 2, further chain): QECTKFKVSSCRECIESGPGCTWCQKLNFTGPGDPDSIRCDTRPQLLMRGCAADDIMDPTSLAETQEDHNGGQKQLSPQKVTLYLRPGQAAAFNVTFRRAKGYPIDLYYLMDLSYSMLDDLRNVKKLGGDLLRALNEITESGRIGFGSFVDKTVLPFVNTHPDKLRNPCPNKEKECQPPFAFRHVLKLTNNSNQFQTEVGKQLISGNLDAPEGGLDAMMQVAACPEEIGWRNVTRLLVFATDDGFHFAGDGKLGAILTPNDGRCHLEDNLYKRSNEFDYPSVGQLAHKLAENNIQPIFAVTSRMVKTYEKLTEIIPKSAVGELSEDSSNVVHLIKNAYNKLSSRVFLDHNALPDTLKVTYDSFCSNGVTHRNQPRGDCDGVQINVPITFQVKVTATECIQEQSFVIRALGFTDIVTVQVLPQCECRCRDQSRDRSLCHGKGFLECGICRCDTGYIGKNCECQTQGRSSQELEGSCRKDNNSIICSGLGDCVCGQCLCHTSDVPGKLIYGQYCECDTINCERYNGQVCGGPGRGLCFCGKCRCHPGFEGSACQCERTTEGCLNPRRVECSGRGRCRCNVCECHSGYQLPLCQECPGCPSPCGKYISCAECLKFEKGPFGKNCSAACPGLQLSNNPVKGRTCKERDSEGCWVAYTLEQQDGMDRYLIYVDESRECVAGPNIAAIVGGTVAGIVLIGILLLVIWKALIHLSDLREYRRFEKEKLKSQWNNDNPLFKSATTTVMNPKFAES

human WT LFA-1 (alpha L beta 2) on cells, activation state not specified at the place cited (human), sequence (P20701 26-1170, chain 1 of 2): as the sequence (P20701 26-1170, chain 1 of 2) above
human WT LFA-1 (alpha L beta 2) on cells, activation state not specified at the place cited (human), sequence (P05107 23-769, chain 2 of 2, further chain): as the sequence (P05107 23-769, chain 2 of 2, further chain) above

## TS1/22-protamine fusion protein (scFv TS1/22 fused to human protamine residues 8-29, His6 tag) (from UniProt P04553 8-29)
[1]
  Cy3+ K562 cells/Total K562 cells, % (in vivo Cy3-siRNA delivery, SCID mouse lung, flow cytometry): 87.4%
[2]
  Cy3+ K562 cells/Total K562 cells, % (in vivo Cy3-siRNA delivery, SCID mouse lung, flow cytometry): 88.5%

## AL-57-protamine fusion protein (scFv AL-57 fused to truncated human protamine, residues 8-29, His6 tag) (from UniProt P04553 8-29)
[1]
  Cy3+ K562 cells/Total K562 cells, % (in vivo Cy3-siRNA delivery, SCID mouse lung, flow cytometry): 88.1%
[2]
  Cy3+ K562 cells/Total K562 cells, % (in vivo Cy3-siRNA delivery, SCID mouse lung, flow cytometry): 23.3%
[3]
  Cy3-siRNA delivery to PBMC subsets (flow cytometry), Cy3+ T and B lymphocytes: 1 to 2%

## ML39-protamine fusion protein (control scFv-PF fusion protein that recognizes human ErbB2)
[1]
  Cy3+ K562 cells/Total K562 cells, % (in vivo Cy3-siRNA delivery, SCID mouse lung, flow cytometry): 4.2%
[2]
  Cy3+ K562 cells/Total K562 cells, % (in vivo Cy3-siRNA delivery, SCID mouse lung, flow cytometry): 4.7%
